For test [1], the target named is βENaC PY motif peptide (Homo sapiens) (UniProt P51168). The conditions noted are these: cited from earlier work.
Test [2] deals with βhENaC PY-motif peptide (human). Kind of test: SPR; BIAcore 2000; peptide immobilised on Sensor Chip CM5 by amine chemistry; isolated WW-domains injected at 20 µl/min in HBS-EP; KD estimated from steady state equilibrium responses.
Test [3] deals with SGK PY-motif peptide (human). The test is described as above.

Sequence of Nedd4 WW2-4 (P46934 767-925): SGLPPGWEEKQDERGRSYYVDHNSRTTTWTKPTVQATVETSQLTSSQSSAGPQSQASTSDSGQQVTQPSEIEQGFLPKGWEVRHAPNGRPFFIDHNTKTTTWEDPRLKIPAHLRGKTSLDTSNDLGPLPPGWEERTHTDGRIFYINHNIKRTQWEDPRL

As to Nedd4 WW2-4 (from UniProt P46934), in test [1], the Kd (in general, the free concentration of one partner at which half of the binding sites on the other are occupied at equilibrium, for simple one-to-one binding) was 65 µM. Take “Nedd4-2 WW3 (isolated WW-domain, GST removed) (domain or fragment)”: the Kd in test [2] is 11.1 µM; in test [3], 250 µM.

The record behind these values is PMC2921341, “Interaction of Serum- and Glucocorticoid Regulated Kinase 1 (SGK1) with the WW-Domains of Nedd4-2 Is Required for Epithelial Sodium Channel Regulation” (PLoS ONE, 2010).
